Experimental data taken from publication PMC6511873 (Nucleic Acids Research, 2019).
Values belong to the binder of their own block, whether it stands above or below them.

What was measured:
[1] = molecular target: T1, Recombinant Fc-extracellular domain fusion of human Jagged-2 (Homo sapiens, UniProt Q9Y219); assay: ELISA
[2] = molecular target: T1, Recombinant Fc-extracellular domain …; assay: ELISA; remark: listed apart in the source

T1 sequence (Q9Y219 27-1080): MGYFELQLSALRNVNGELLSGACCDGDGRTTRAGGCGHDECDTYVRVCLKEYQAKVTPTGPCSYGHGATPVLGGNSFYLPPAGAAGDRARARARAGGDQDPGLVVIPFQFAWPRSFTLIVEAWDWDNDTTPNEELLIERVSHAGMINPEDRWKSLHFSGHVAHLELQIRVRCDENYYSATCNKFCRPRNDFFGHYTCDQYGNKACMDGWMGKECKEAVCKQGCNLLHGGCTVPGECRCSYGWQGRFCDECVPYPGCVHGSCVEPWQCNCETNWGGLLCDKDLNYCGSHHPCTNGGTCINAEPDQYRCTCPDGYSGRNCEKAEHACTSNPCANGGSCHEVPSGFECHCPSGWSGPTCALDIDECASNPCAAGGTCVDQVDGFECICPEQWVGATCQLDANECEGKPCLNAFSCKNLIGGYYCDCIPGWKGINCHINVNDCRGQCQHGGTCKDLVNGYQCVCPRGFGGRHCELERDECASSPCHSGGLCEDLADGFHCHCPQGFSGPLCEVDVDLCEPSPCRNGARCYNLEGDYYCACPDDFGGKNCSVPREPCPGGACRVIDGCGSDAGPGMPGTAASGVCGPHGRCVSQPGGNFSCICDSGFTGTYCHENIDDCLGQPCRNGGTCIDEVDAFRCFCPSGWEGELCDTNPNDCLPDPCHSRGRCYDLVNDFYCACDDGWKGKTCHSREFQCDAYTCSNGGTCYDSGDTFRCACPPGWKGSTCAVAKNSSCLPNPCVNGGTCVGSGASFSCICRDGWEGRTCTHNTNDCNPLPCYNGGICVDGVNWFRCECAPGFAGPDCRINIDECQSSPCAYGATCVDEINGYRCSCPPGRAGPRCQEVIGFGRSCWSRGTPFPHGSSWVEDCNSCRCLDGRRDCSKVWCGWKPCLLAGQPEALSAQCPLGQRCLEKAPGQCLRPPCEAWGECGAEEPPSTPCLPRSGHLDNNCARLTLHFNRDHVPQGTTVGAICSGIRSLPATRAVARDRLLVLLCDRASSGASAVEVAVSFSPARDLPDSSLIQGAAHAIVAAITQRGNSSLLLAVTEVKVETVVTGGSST

binding result [1]: binds
B1: Fab J2/F/R6 (purified) (Fab, V domains shown)
VH: EVQLVESGGGLVQPGGSLRLSCAASGFNLSYSSMHWVRQAPGKGLEWVAYISPSYGYTSYADSVKGRFTISADTSKNTAYLQMNSLRAEDTAVYYCARAHWSSYVSGGWAYPHHSGMDYWGQGTLVTVSS
VL: DIQMTQSPSSLSASVGDRVTITCRASQSVSSAVAWYQQKPGKAPKLLIYSASSLYSGVPSRFSGSRSGTDFTLTISSLQPEDFATYYCQQSYASVLITFGQGTKVEIK

EC50 [2]: 24.6 nM
B2: Fab J2/F/R7 (purified) (Fab, V domains shown)
VH: EVQLVESGGGLVQPGGSLRLSCAASGFNIYSSSMHWVRQAPGKGLEWVAYISPSYSYTYYADSVKGRFTISADTSKNTAYLQMNSLRAEDTAVYYCARSYWYSHYAWWWASYSVVGIDYWGQGTLVTVSS
VL: DIQMTQSPSSLSASVGDRVTITCRASQSVSSAVAWYQQKPGKAPKLLIYSASSLYSGVPSRFSGSRSGTDFTLTISSLQPEDFATYYCQQYASYPITFGQGTKVEIK

binding result [1]: binds
B3: Fab J2/F/R4 (purified) (Fab, V domains shown)
VH: EVQLVESGGGLVQPGGSLRLSCAASGFNLYSSYIHWVRQAPGKGLEWVAYISPSYGYTYYADSVKGRFTISADTSKNTAYLQMNSLRAEDTAVYYCARYYYSGWAVYAGMDYWGQGTLVTVSS
VL: DIQMTQSPSSLSASVGDRVTITCRASQSVSSAVAWYQQKPGKAPKLLIYSASSLYSGVPSRFSGSRSGTDFTLTISSLQPEDFATYYCQQWHHPPAPITFGQGTKVEIK
